pIC50: −log10 of the molar value. Ends that are not written are not given here.
Tests used:
[1] = target: HLA-A*11:01 (fluorescence polarisation peptide-binding assay); assay: fluorescence polarisation; competitive binding assay of synthetic peptide with HLA-A*11:01 (Pure Protein L.L.C. method, ref. 45); IC50 <5,000 nM categorised as high affinity
[2] = target: T1, HLA-A*11:01 (Homo sapiens, UniProt P04439, A114D/D185E/E176A/F33Y/L180Q/S129P/T187R); assay: Fluorescence polarization competitive peptide-binding assay
T1 construct: purchased Pure Protein L.L.C
Experimental: Figure 1 Direct epitope discovery of WNV epitope GTL9. (A) RP-HPLC profile of HLA-A*11:01 peptides from uninfected (blue) and WNV-infected (red) cells. (B) MS ion spectra of HPLC fraction 50 from uninfected (black) and infected (red) cells. MS data were recorded for 300 scans. (C) Overlay of the MS/MS fragmentation pattern of ion 466.7 in the infected HPLC fraction 50 (identified as the GTL9 peptide; red) with the MS/MS fragmentation pattern for the GTL9 synthetic peptide (black). (D) Florescence polarization competitive binding assay with the GTL9 synthetic peptide and HLA-A*11:01.
These six WNV peptides fit the reported A*11:01-binding motif. […] The fluorescence polarization assay used to assess A*11:01 binding categorizes peptides with IC50 values <5,000 nM as high affinity. In summary, six WNV ligands were discovered by direct elution from A*11:01, these ligands were sequenced by tandem MS, their sequence was confirmed with synthetic ligands, they bound well to A*11:01, they were of traditional length, and these ligands were consistent with the previously reported A*11:01 motif.
MS ion maps were generated for HPLC fractions containing peptides. Fractions were ionized by using nanoelectrospray capillaries (Proxeon) into a QSTAR elite (Applied Biosystems) electrospray quadrupole time-of-flight mass spectrometer. Peptide sequences were determined manually by using the MASCOT software package (Matrix Science). Peptide binding to HLA-A*11:01 was determined using the florescence polarization method (Pure Protein L.L.C.).

Substance	pIC50 [1]	pIC50 [2]
AII11 synthetic peptide (WNV NS5 2559-2569)	4.95	–
AIIEVDRSAAK [AII11]	–	4.95
AVV9 synthetic peptide (WNV NS4B 2458-2466)	5.65	–
AVVVNPSVK [AVV9]	–	5.65
GTL9 synthetic peptide (WNV capsid 89-97)	5.95	–
GTLTSAINR [GTL9]	–	5.95
KNM9 synthetic peptide (WNV NS4B 2519-2527)	4.61	–
KNMEKPGLK [KNM9]	–	4.61
KSY9 synthetic peptide (WNV NS3 1894-1902)	5.10	–
KSYETEYPK [KSY9]	–	5.10
RVL9 synthetic peptide (WNV capsid 23-31)	6.48	–
RVLSLIGLK [RVL9]	–	6.48
